Measurements taken from IntAct's records for PubMed 9571151.

B1: Tyrosine-protein kinase BTK (Homo sapiens), Q06187 (parent)
chain: MAAVILESIFLKRSQQKKKTSPLNFKKRLFLLTVHKLSYYEYDFERGRRGSKKGSIDVEKITCVETVVPEKNPPPERQIPRRGEESSEMEQISIIERFPYPFQVVYDEGPLYVFSPTEELRKRWIHQLKNVIRYNSDLVQKYHPCFWIDGQYLCCSQTAKNAMGCQILENRNGSLKPGSSHRKTKKPLPPTPEEDQILKKPLPPEPAAAPVSTSELKKVVALYDYMPMNANDLQLRKGDEYFILEESNLPWWRARDKNGQEGYIPSNYVTEAEDSIEMYEWYSKHMTRSQAEQLLKQEGKEGGFIVRDSSKAGKYTVSVFAKSTGDPQGVIRHYVVCSTPQSQYYLAEKHLFSTIPELINYHQHNSAGLISRLKYPVSQQNKNAPSTAGLGYGSWEIDPKDLTFLKELGTGQFGVVKYGKWRGQYDVAIKMIKEGSMSEDEFIEEAKVMMNLSHEKLVQLYGVCTKQRPIFIITEYMANGCLLNYLREMRHRFQTQQLLEMCKDVCEAMEYLESKQFLHRDLAARNCLVNDQGVVKVSDFGLSRYVLDDEYTSSVGSKFPVRWSPPEVLMYSKFSSKSDIWAFGVLMWEIYSLGKMPYERFTNSETAEHIAQGLRLYRPHLASEKVYTIMYSCWHEKADERPTFKILLSNILDVMDEES
partner: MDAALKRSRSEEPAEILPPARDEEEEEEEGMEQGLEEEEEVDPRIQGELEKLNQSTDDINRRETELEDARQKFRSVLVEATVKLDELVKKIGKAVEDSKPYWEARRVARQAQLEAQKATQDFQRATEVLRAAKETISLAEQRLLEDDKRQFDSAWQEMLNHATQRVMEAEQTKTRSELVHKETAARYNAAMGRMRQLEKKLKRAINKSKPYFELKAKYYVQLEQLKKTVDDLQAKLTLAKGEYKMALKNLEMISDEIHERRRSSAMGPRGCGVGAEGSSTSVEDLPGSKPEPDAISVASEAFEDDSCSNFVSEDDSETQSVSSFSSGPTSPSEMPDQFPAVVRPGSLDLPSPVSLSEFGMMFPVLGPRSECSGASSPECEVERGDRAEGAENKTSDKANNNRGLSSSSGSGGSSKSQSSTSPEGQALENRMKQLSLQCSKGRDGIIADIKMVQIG

Variants of: B1
Conditions: with 3bp5_human SH3BP5, O60239

Row | effect of a mutation on the interaction | Variant
1 | decreasing interaction | W251L;W252L
